Experimental data reported in IntAct's records for PubMed 18796637.

B1: B-box zinc finger protein 22 (Arabidopsis thaliana (Mouse-ear cress)), Q9SYM2 (parent)
chain: MKIQCNVCEAAEATVLCCADEAALCWACDEKIHAANKLAGKHQRVPLSASASSIPKCDICQEASGFFFCLQDRALLCRKCDVAIHTVNPHVSAHQRFLLTGIKVGLESIDTGPSTKSSPTNDDKTMETKPFVQSIPEPQKMAFDHHHHQQQQEQQEGVIPGTKVNDQTSTKLPLVSSGSTTGSIPQWQIEEIFGLTDFDQSYEYMENNGSSKADTSRRGDSDSSSMMRSAEEDGEDNNNCLGGETSWAVPQIQSPPTASGLNWPKHFHHHSVFVPDITSSTPYTGSSPNQRVGKRRRRF
partner: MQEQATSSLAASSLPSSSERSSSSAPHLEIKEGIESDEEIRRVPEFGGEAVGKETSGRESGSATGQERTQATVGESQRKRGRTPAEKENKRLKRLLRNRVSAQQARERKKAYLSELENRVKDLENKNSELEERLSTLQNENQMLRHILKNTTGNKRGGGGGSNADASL

Variants of: B1
Conditions: with hy5_arath HY5, O24646

Variant	effect of a mutation on the interaction
D72A	disrupting interaction
D81A	disrupting interaction
